We go through 2 molecules from PMC4453472, “First Glycoside Hydrolase Family 2 Enzymes from Thermus antranikianii and Thermus brockianus with β-Glucosidase Activity” (Frontiers in Bioengineering and Biotechnology, 2015).

By Km is commonly meant the substrate concentration at which the rate is half of its maximum. One may read the Vmax as the rate approached at saturating substrate. The term kcat denotes the number of substrate molecules converted per active site and unit of time at saturation. A word on the kcat/Km: it is the second-order rate constant that governs catalysis at low substrate concentration.

What all share (assay): purified protein
Series [1] relates to T1, O=[N+]([O-])c1ccc(O[C@@H]2O[C@H](CO)[C@H](O)[C@H](O)[C@H]2O)cc1.
T1 construct: recombinant, pQE-80L (His-tag vector) in E. coli BL21 Star(DE3); heat precipitation and Ni-NTA
It is filed as biochemical, Thermus antranikianii. Particulars: 90°C, 20 mM citrate buffer pH 6.5, 0-25 mM substrate, 10 min.

For series [2], the system named is T2, O=[N+]([O-])c1ccc(O[C@@H]2O[C@H](CO)[C@@H](O)[C@H](O)[C@H]2O)cc1.
T2 construct: recombinant, pQE-80L (His-tag vector) in E. coli BL21 Star(DE3); heat precipitation and Ni-NTA
It is filed as biochemical, Thermus antranikianii. Particulars: 90°C, 20 mM citrate buffer pH 6.5, 0-10 mM substrate, 10 min.

Substrate in series [3]: O=[N+]([O-])c1ccc(O[C@@H]2O[C@H](CO)[C@H](O)[C@H](O)[C@H]2O)cc1
Conditions: 90°C, 20 mM maleate buffer pH 6.5, 0-25 mM substrate, 10 min.

Substrate in series [4]: O=[N+]([O-])c1ccc(O[C@@H]2O[C@H](CO)[C@@H](O)[C@H](O)[C@H]2O)cc1
Particulars: 90°C, 20 mM maleate buffer pH 6.5, 0-10 mM substrate, 10 min.

For the molecule TaGH2 (Thermus antranikianii), in series [1], the Km came out at 2200 ± 20 µM, the Vmax was 2615 ± 3 µmol/min/mg, the kcat is 14000 s⁻¹ and the kcat/Km came out at 6.36e+06 M⁻¹ s⁻¹. Besides, in series [2], the Michaelis constant (Km) is 730 ± 30 µM, the Vmax was 4028 ± 21 µmol/min/mg, the kcat was determined as 21600 s⁻¹ and the kcat/Km is 2.95e+07 M⁻¹ s⁻¹.

B1: TbGH2 (Thermus brockianus) (protein)
chain: RLKSALFLAHPAGEPEALPEEGWREVALPHQWTLEGLEAEVGWYRLTLPEGGPRRFLRSLGDYYQEAWLEGRFLGRHEGYFFPWLLELPPGKELYLRVSAPKEPLGQWPRFKRQIKGVLGQHDCRPGGVSPRGQERGTGGLWGGVEVVFREEVALLHLTHRLHPRPGGWRLLVRLLLDAPRPFAERVLLRLSPENFPGEAWTQEVGLRGDAGRGYREVVWDLPEMPLWEVWERGFPHLFRLEAELAQAQVSAPLGFRTVAWDEEGWLLLNGRRLFLRGTNHIPTQWLAAYSQALAEKDVALLKEAGLNAVRVHAHLTHPVFYEVCDREGVLVWQDFPLQWGYAPDEAFAEEAVRQVRAMVEHYGAHPSIYLWCAQNEPTHNRHALGPLLAAELRAQDPSRLVKEASDFREHPYPGWYWGHFRDFLALPGAPLPSEFGAQALPRAELLRRVLGEAAWPPKWEVWAYHNFQPHETFRVAGVEMGTSLESFVENSQAYQARLLSFAIHVYRRAKGKVVGYFQFLFAEPWEGITWAVLDVERIPKKGFHALKEASSPVLLSLVPYRERLEVGGVPLWEAWLVNDLERPLTLRVALALEGPVALPLWEGEVAVAGGEVRRFFSLGELWESPWEAQERLMRVAEALRRLPPGRYRLVGEAWEGERLWSRQVVELVYLEPLVPPGEAW
Regarding B1, in series [3], the Km was 3560 ± 70 µM, the Vmax was found to be 1333 ± 11 µmol/min/mg, the kcat is 6680 s⁻¹ and the kcat/Km turned out to be 1.88e+06 M⁻¹ s⁻¹. In series [4], the Km is 500 ± 20 µM, the Vmax came out at 778 µmol/min/mg, the kcat worked out at 3900 s⁻¹ and the kcat/Km was 7.8e+06 M⁻¹ s⁻¹.
